{
  "source": "patent US20240343810A1",
  "about": "(published 2024)",
  "key": {"[1]": {"biological_target": "T1, human ICOS-mFc (Chimerigen) (human, UniProt Q9Y6W8 21-140)", "T1 construct": "Bought; also called recombinant human ICOS protein; hICOS; not shown: mouse Fc of the bought fusion", "T1 sequence": "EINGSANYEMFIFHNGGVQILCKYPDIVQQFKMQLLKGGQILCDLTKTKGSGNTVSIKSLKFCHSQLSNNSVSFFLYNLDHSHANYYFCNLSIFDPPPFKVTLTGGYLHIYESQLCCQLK", "test": "HTRF, human ICOS-mFc, competitor human B7-H2-Alexa 647, n2", "procedure": "(§1) 5 μl of human ICOS-mFc (Chimerigen) at 20 nM (5 nM final) or 5 ul of mouse ICOS-mFc (Chimerigen) at 4 nM (1 nM final) were added to relevant assay wells. Plate was incubated for 1 hour (hr) at room temperature (RT).\n(§2) After incubation, assay was read on Envision plate reader (Perkin Elmer) using a standard HTRF protocol. 620 nm and 665 nm channel values were exported to Microsoft Excel and % Delta-F and % Neutralisation calculations performed. Titration curves and IC50 values [M] were plotted using Graphpad (Prism). IC50 values were calculated by first transforming the data using equation X=Log(X). The transformed data was then fitted using nonlinear regression, using fitting algorithm, log (inhibitor) vs. response—variable slope (four parameters)."}, "[2]": {"biological_target": "T1, human ICOS-mFc (Chimerigen)", "test": "HTRF, human ICOS-mFc, competitor human B7-H2-Alexa 647, average", "procedure": "as §1, §2"}, "[3]": {"biological_target": "T2, mouse ICOS expressed on CHO cells (mouse, UniProt Q9WVS0 21-200)", "T2 construct": "also called CHO-S cells transfected with mouse ICOS; mICOS", "T2 sequence (looked up)": "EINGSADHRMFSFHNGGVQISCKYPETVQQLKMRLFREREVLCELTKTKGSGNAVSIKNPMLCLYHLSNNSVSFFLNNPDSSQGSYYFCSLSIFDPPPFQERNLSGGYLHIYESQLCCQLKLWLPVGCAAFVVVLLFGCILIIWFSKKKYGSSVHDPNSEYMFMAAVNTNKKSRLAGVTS", "test": "Flow cytometry on CHO-S mouse ICOS cells, anti-human IgG AF647, N=3", "procedure": "CHO—S cells transfected with either human ICOS or mouse ICOS were resuspended in FACS buffer (PBS+1% w/v BSA+0.1% w/v sodium azide) and transferred to a 96-well V-bottom plate (Greiner) at a density of 1×10⁵ cells per well. mAb and mAb² were titrated in FACS buffer, 1 in 3 dilution across 11 points from a starting working concentration of 400 nM. Plates were centrifuged at 300×g for 3 minutes, supernatant discarded and 50 μL mAb or mAb² solution were added to cells and incubated at 4° C. for 1 hour. Cells were washed with 150 μL of PBS and centrifuged at 300×g for 3 minutes, supernatant was discarded and cell pellet resuspended in 150 μL PBS added. This wash step was repeated twice. Bound mAb or mAb² was detected by addition of 50 μL of anti-human 647 (Jackson ImmunoResearch) diluted to 3 ug/ml in FACS buffer. Cells were incubated for 1 hour at 4° C. in the dark. Cells were washed with 150 μL of PBS and centrifuged at 300 g for 3 minutes, supernatant was discarded and cell pellet resuspended in 150 μL PBS added. This wash step was repeated twice. Cells were fixed with 25 μL 4% v/v paraformaldehyde, incubated for 20 minutes at 4° C., cells were pelleted by centrifugation at 300×g and the supernatant discarded. […] AlexaFluor 647 signal intensity (geometric mean) was measured by flow cytometry using a Beckman Coulter CytoFLEX instrument."}, "[4]": {"biological_target": "T3, mouse ICOS-mFc (Chimerigen) (mouse, UniProt Q9WVS0 21-141, limits assumed)", "T3 construct": "Bought; also called recombinant mouse ICOS protein; mICOS; not shown: mouse Fc of the bought fusion", "T3 sequence": "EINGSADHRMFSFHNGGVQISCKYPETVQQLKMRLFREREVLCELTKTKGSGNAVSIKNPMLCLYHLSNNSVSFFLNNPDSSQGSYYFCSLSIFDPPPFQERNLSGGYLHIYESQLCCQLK", "test": "HTRF, mouse ICOS-mFc, competitor mouse B7-H2-Alexa 647, mean as told in the text (table prints 0.37)"}, "[5]": {"biological_target": "T4, Biotinylated human ICOS protein (human, UniProt Q9Y6W8 21-140, limits assumed, biotinylated (sites not given))", "T4 construct": "Captured on the NLC chip in the avidity SPR", "T4 sequence": "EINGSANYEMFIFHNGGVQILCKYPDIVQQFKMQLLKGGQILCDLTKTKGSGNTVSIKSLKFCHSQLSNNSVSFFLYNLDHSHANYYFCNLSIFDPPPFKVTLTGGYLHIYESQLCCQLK", "test": "SPR ProteOn avidity format, biotinylated human ICOS on NLC chip, antibody analyte; apparent KD from equilibrium, 25 C", "procedure": "Biotinylated human ICOS protein diluted at 7.5 μg/mL in running buffer (1× HBS-EP+ Buffer Technova, cat. No. H8022) was captured on a NLC sensor chip (Bio-Rad, cat No 1765021). The surface was then blocked using biocytin (Sigma Aldrich, cat No B1758) at 1 mg/mL.\nThe assay was carried out at 25° C.\nThe buffer injection (i.e. 0 nM) was used to double reference the sensorgrams. The analysis was carried out using the equilibrium model inherent to the ProteOn's analysis software for each mAb² construct."}},
  "data": [
    {"binder": "STIM003 (antibody, human IgG1, kappa, Anti-ICOS monospecific antibody, tested as human IgG1; also called STIM003 monoclonal IgG1 antibody) heavy: not shown light: EIVLTQSPGTLSLSPGERATLSCRASQSVSRSYLAWYQQKRGQAPRLLIYGASSRATGIPDRFSGDGSGTDFTLSISRLEPEDFAVYYCHQYDMSPFTFGPGTKVDIKRTVAAPSVFIFPPSDEQLKSGTASVVCLLNNFYPREAKVQWKVDNALQSGNSQESVTEQDSKDSTYSLSSTLTLSKADYEKHKVYACEVTHQGLSSPVTKSFNRGEC", "values": [
      {"measurement": "IC50", "setting": "[1]", "result": 0.45, "unit": "nM"},
      {"measurement": "IC50", "setting": "[2]", "result": 0.53, "unit": "nM"},
      {"measurement": "EC50", "setting": "[3]", "result": 7.28, "unit": "nM"},
      {"measurement": "IC50", "setting": "[4]", "result": 0.12, "unit": "nM"}
    ]},
    {"binder": "STIM001 (antibody, human IgG1, kappa, Anti-ICOS monospecific antibody, tested as human IgG1; also called STIM001 monoclonal IgG1 antibody) heavy: not shown light: DIVMTQSPLSLPVTPGEPASISCRSSQSLLHSNEYNYLDWYLQKPGQSPQLLIFLGSNRASGVPDRFSGSGSGTDFTLKITRVEAEDVGIYYCMQSLQTPLTFGGGTKVEIKRTVAAPSVFIFPPSDEQLKSGTASVVCLLNNFYPREAKVQWKVDNALQSGNSQESVTEQDSKDSTYSLSSTLTLSKADYEKHKVYACEVTHQGLSSPVTKSFNRGEC", "values": [
      {"measurement": "IC50", "setting": "[1]", "result": 1.12, "unit": "nM"},
      {"measurement": "Kd", "setting": "[5]", "result": 57.1, "unit": "nM"},
      {"measurement": "IC50", "setting": "[2]", "result": 1.47, "unit": "nM"},
      {"measurement": "EC50", "setting": "[3]", "result": 20.1, "unit": "nM"}
    ]}
  ]
}
